Experimental data taken from publication PMC5913352.

Target: T1, PhoP (non-phosphorylated) (Escherichia coli ExPEC (APEC) FY26 (O2:K1, ST95)?) (UniProt Q8CXZ9)
T1 sequence: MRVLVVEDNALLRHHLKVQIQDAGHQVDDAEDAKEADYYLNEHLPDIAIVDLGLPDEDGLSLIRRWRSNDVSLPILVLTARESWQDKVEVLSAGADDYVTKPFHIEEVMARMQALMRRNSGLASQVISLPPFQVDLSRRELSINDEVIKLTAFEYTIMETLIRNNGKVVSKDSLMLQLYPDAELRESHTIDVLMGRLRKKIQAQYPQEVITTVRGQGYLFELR
Assay: EMSA

CAGGACTGAAACGCTTCCTTCATGTTGGTACTGCTATGTCTTGTACACCTCATACGGGGTCGCTAGTTAAGGAAGAGTCTGCTTCATCAGAAACAGGTGAACATTTAGTGGAGTATACGCATTCAAAAGCAACAATAGAATATCTGATGCGTAAGCAGTGTCCTGATTTACCTTTGTTGGTTGCCCGACCATCAATTATT (double strand)
binding: no binding
